Consider ten molecules from patent US10190113B2, “Methods and compositions for segregating target nucleic acid from mixed nucleic acid samples” (FLIR DETECTION, INC., priority 2011, dated 2019).

Numbering of substitutions follows the chain as printed. Numbers in names are those of the source. A value given as a limit tells only on which side of the number the result lay.

To fix the notation:
B1: BsoBI D212V: BsoBI restriction enzyme with mutation D212V (protein, UniProt P70985 2-323, looked up, variant D212V)
Type II restriction enzyme …: NTQKPFENHLKSVDDLKTTYEEYRAGFIAFALEKNKRSTPYIERARALKVAASVAKTPKDLLYLEDIQDALLYASGISDKAKKFLTEDDKKESINNLIENFLEPAGEEFIDELIFRYLLFQGDSLGGTMRNIAGALAQQKLTRAIISALDIANIPYKWLDSRDKKYTNWMDKPEDDYELETFAKGISWTINGKHRTLMYNITVPLVKKNVVICLFNCEPEIYTPQKVHQQPEKYLLLGELKGGIDPAGADEHWKTANTALTRIRNKFSEKGLSPKTIFIGAAIEHSMAEEIWDQLQSGSLTNSANLTKTEQVGSLCRWIINI
B2: BsoBI E252K: BsoBI restriction enzyme with mutation E252K (protein, UniProt P70985 2-323, looked up, variant E252K)
Type II restriction enzyme …: B1 Type II restriction enzyme … with V211D, E251K
B3: BsoBI D246G: BsoBI restriction enzyme with mutation D246G (protein, UniProt P70985 2-323, looked up, variant D246G)
Type II restriction enzyme …: B1 Type II restriction enzyme … with V211D, D245G
B4: Eco57I D78N: Eco57I restriction enzyme with mutation D78N (protein, UniProt P25239 1-998, looked up, variant D78N)
Type II restriction enzyme …: MNKKDQLQRLIDKYKSDIDYYRSARYNETQLRTDFLDQLFLILGWDITNAAGKPTNEREVLVEEGLKARAGENTKKPNYTFRLFSERKFFLEAKKPSVDISTTIEPALQVRRYGFTAKLKISVLSNFEYTAIYDCSNQVKETDSVANSRIKLYHFTELVDKFDEINNLIGRESVYTGHFDNEWSEIENKILRFSVDDLFLKQINDWRLLLANEFLQIKNELPEEKLNDLVQNYINSIVFLRVCEDRDLEEYETLYHFAQDKDFQSLVKKLKSSDKKYNSGLFSLEYIDELLSNANSCIWSIIEQLYFPQSTYSFSVFSSDILGNIYEIFLSEKVRIDELGNVKIQPKEEHIDRDVVTTPTHIVKEIIRNTVVEYCKGKSDIEILNSKFADIACGSGAFIIEAFQFIQDILIDYYIQNDKSKLQQISEHTYKLKFEVKREILCKCIYGIDKDYNATKACTFGLLLKLLEGETTETIGKDTPILPALDTNILFGNSLIDSGDKVKQEDIFSINPFDLTNYQFDVIVGNPPYMATEHMNQLTPKELDIYKRKYKSAYKQFDKYFLFIERSIQILKEYGYLGYILPSRFIKVDAGKKLRKFLSENKYLSKLISFGSHQVFKNKTTYTCLLFLNKENHDNFSFYEVKDFKKWLTREDKYLLSSTYQTSSLDSDTWVLEKKINDILKLMFSKSEQLGNIVGKSNVANGIQTSANKYYIHKEIKSENGFIYFEYDGIEYHIEKELTRPYFETNRSGDDSFYTYKDVEPNSFVVYPYKKVGERIQFIEYDELKRQYPKLFEFLQVVKVHLNDKKRSIKPDPTGPNEWYRYGRSQALENCDVDQKLIVGILSNGYKYSIDNHRTFVSSGGTAGYSIINIPNNVRYSIYYIQAILTSKYLEWFASIYGDIFRGRFVARGTKVQTRMPIPTIDFDDPKQKEIHDTISSKQQYLNKLYSQTQKSADRDKIIFERQFEQEKIQMDYLIKNLFDLGDLDSEIPTVEDLYKNL
B5: Eco57I E92Q: Eco57I restriction enzyme with mutation E92Q (protein, UniProt P25239 1-998, looked up, variant E92Q)
Type II restriction enzyme …: B4 Type II restriction enzyme … with N78D, E92Q
B6: EcoRV Q69E: EcoRV restriction enzyme with mutation Q69E (protein, UniProt P04390 2-245, looked up, variant Q69E)
Type II restriction enzyme …: SLRSDLINALYDENQKYDVCGIISAEGKIYPLGSDTKVLSTIFELFSRPIINKIAEKHGYIVEEPKQENHYPDFTLYKPSEPNKKIAIDIKTTYTNKENEKIKFTLGGYTSFIRNNTKNIVYPFDQYIAHWIIGYVYTRVATRKSSLKTYNINELNEIPKPYKGVKVFLQDKWVIAGDLAGSGNTTNIGSIHAHYKDFVEGKGIFDSEDEFLDYWRNYERTSQLRNDKYNNISEYRNWIYRGRK
B7: EcoRV N70D: EcoRV restriction enzyme with mutation N70D (protein, UniProt P04390 2-245, looked up, variant N70D)
Type II restriction enzyme …: B6 Type II restriction enzyme … with E68Q, N69D
B8: BamHI G56S: BamHI restriction enzyme with mutation G56S (protein, UniProt P23940 1-213, looked up, variant G56S)
Type II restriction enzyme …: MEVEKEFITDEAKELLSKDKLIQQAYNEVKTSICSPIWPATSKTFTINNTEKNCNSVVPIKELCYTLLEDTYNWYREKPLDILKLEKKKGGPIDVYKEFIENSELKRVGMEFETGNISSAHRSMNKLLLGLKHGEIDLAIILMPIKQLAYYLTDRVTNFEELEPYFELTEGQPFIFIGFNAEAYNSNVPLIPKGSDGMSKRSIKKWKDKVENK
B9: BamHI G91S: BamHI restriction enzyme with mutation G91S (protein, UniProt P23940 1-213, looked up, variant G91S)
Type II restriction enzyme …: B8 Type II restriction enzyme … with S56G, G91S

The first experiment deals with sera binding to N6 mA coated ELISA plates. The experiment is described as follows: Competitive ELISA of antisera on N6 mA-BSA coated wells. The arrangement: species or system mice. Particulars: 100 ng of competitor. How it is done: Competitive ELISA were performed as previously described. Itoh, K., M. Mizugaki, and N. Ishida, Preparation of a monoclonal antibody specific for 1-methyladenosine and its application for the detection of elevated levels of 1-methyladenosine in urines from cancer patients. Jpn J Cancer Res, 1988. 79(10): p. 1130-8. Wells were coated with the N6 mA-BSA conjugate ensuring that binding activity was not directed against the KLH component of the immunogen. Specificity was determined by incubating the antisera with either N6-Methyl-2-deoxyadenosine (specific inhibitor for the desired activity) or 2-Deoxyadenosine 5-monophosphate and adding it to the coated well. When antisera bound to the coated well, no competition was present.
(In an ELISA, binding on a coated surface is turned into a signal by an enzyme label.)
On to `CNc1ncnc2c1ncn2[C@H]1C[C@H](O)[C@@H](CO)O1` [N6 mA, N6-Methyl-2-deoxyadenosine], for which the “inhibition of sera binding to N6 mA coated ELISA plates” value turned out to be 50%.

The subject of a further experiment is nucleic acid recognition or cleavage site.
Assay: not given
Conditions: mutant restriction enzyme relative to wild type; cited from earlier work.
In the case of B1, the “% of WT cleavage activity” value was less than 0.1%.

B2: the “% of WT cleavage activity” value is reported as less than 0.1%.

Regarding B3, the “% of WT cleavage activity” value was less than 0.1%.

Regarding B4, the “% of WT cleavage activity” value is less than 0.1%.

For the molecule B5, the “% of WT cleavage activity” value is on record as less than 0.1%.

For the molecule B6, the “% of WT cleavage activity” value is listed as less than 0.1%.

B7: the “% of WT cleavage activity” value is given as 0%.

B8: the “% of WT cleavage activity” value is 1%.

For the molecule B9, the “% of WT cleavage activity” value is reported as 1%.
